# Measured values taken from paper PMC9599074, “Integration of Power-Free and Self-Contained Microfluidic Chip with Fiber Optic Particle Plasmon Resonance Aptasensor for Rapid Detection of SARS-CoV-2 Nucleocapsid Protein”.
# B1: NP-A48 (ssDNA)
# DNA: GCTGGATGTCGCTTACGACAATATTCCTTAGGGGCACCGCTACATTGACACATCCAGC
# modifications: terminal amine (end not stated), coupled to carboxyl AuNP
# B2: NP-A61 (ssDNA)
# DNA: GCTGGATGTTGACCTTTACAGATCGGATTCTGTGGGGCGTTAAACTGACACATCCAGC
# modifications: terminal amine (end not stated), coupled to carboxyl AuNP
# Biological target: SARS-CoV-2 nucleocapsid protein (N-protein) (SARS-CoV-2, UniProt P0DTC9 1-419)
# Assay: FOPPR biosensor kinetics; 1x PBS pH 7.4, […]; temperature not stated
# Conditions: protein: commercial; chain copies: 2
row,Binder,Kd
1,B1,2.63 nM
2,B2,5.02 nM
